How the values were obtained:
[1] = test system: ELP1 (wild type);ELP2;ELP3 (Homo sapiens;Homo sapiens;Homo sapiens); assay: MST; conditions: none (in vitro transcribed); MST: 14 nM Cy5-tRNA, ELP123 from 1.5 uM in serial dilution, 20 mM HEPES pH 7.5, 100 mM NaCl, 5 mM DTT, 0.05% Tween 20; incubated 30 min at 4 C, measured at …
[2] = test system: ELP1 K815T;ELP2;ELP3 (Homo sapiens;Homo sapiens;Homo sapiens); assay: MST; conditions: curve did not reach plateau; authors state actual affinity is likely lower; none (in vitro transcribed); MST: 14 nM Cy5-tRNA, ELP123 from 1.5 uM in serial dilution, 20 mM HEPES pH 7.5, 100 mM NaCl, 5 mM DTT, 0.05% Tween 20; incubated 30 min at 4 C, measured at …
[3] = molecular target: the molecule itself; assay: SEC; purified ELP1_(715-1332) proteins on a S200 10/300 increase gel filtration column with calibration standards; fractions on 12% SDS-PAGE, Coomassie

Row | Molecule | Kd [1] [nM] | Kd [2] [nM] | binding result [3]
1 | tRNAGlnUUG | 50 | 150 | –
2 | human ELP1 N-terminal truncation, residues 715-1332 (ELP1_(715-1332)) (domain or fragment, UniProt O95163 715-1332, looked up, ELP1, Homo sapiens, UniProt O95163, amino acids 715 to 1332; cloned with NcoI and XhoI into pETM11; also called ELP1CT; ELP1 C-terminal construct; source: E. coli BL21 pRARE, purified (NiNTA, S200 gel filtration)) NLEVVHHRALVLAQIRKWLDKLMFKEAFECMRKLRINLNLIYDHNPKVFLGNVETFIKQIDSVNHINLFFTELKEEDVTKTMYPAPVTSSVYLSRDPDGNKIDLVCDAMRAVMESINPHKYCLSILTSHVKKTTPELEIVLQKVHELQGNAPSDPDAVSAEEALKYLLHLVDVNELYDHSLGTYDFDLVLMVAEKSQKDPKEYLPFLNTLKKMETNYQRFTIDKYLKRYEKAIGHLSKCGPEYFPECLNLIKDKNLYNEALKLYSPSSQQYQDISIAYGEHLMQEHMYEPAGLMFARCGAHEKALSAFLTCGNWKQALCVAAQLNFTKDQLVGLGRTLAGKLVEQRKHIDAAMVLEECAQDYEEAVLLLLEGAAWEEALRLVYKYNRLDIIETNVKPSILEAQKNYMAFLDSQTATFSRHKKRLLVVRELKEQAQQAGLDDEVPHGQESDLFSETSSVVSGSEMSGKYSHSNSRISARSSKNRRKAERKKHSLKEGSPLEDLALLEALSEVVQNTENLKDEVYHILKVLFLFEFDEQGRELQKAFEDTLQLMERSLPEIWTLTYQQNSATPVLGPNSTANSIMASYQQQKTSVPVLDAELFIPPKINRRTQWKLSLLD | – | – | binds
3 | human ELP1_(715-1332)K815T (domain or fragment, UniProt O95163 715-1332, looked up, ELP1, Homo sapiens, UniProt O95163, amino acids 715 to 1332, with the patient variant p.Lys815Thr; Patient-derived variant (c.2444A>C; p.Lys815Thr); PDB 5CQR is the wild-type parent; also called ELP1K815T C-terminal construct; source: E. coli BL21 pRARE, purified (NiNTA, S200 gel filtration)) NLEVVHHRALVLAQIRKWLDKLMFKEAFECMRKLRINLNLIYDHNPKVFLGNVETFIKQIDSVNHINLFFTELKEEDVTKTMYPAPVTSSVYLSRDPDGNTIDLVCDAMRAVMESINPHKYCLSILTSHVKKTTPELEIVLQKVHELQGNAPSDPDAVSAEEALKYLLHLVDVNELYDHSLGTYDFDLVLMVAEKSQKDPKEYLPFLNTLKKMETNYQRFTIDKYLKRYEKAIGHLSKCGPEYFPECLNLIKDKNLYNEALKLYSPSSQQYQDISIAYGEHLMQEHMYEPAGLMFARCGAHEKALSAFLTCGNWKQALCVAAQLNFTKDQLVGLGRTLAGKLVEQRKHIDAAMVLEECAQDYEEAVLLLLEGAAWEEALRLVYKYNRLDIIETNVKPSILEAQKNYMAFLDSQTATFSRHKKRLLVVRELKEQAQQAGLDDEVPHGQESDLFSETSSVVSGSEMSGKYSHSNSRISARSSKNRRKAERKKHSLKEGSPLEDLALLEALSEVVQNTENLKDEVYHILKVLFLFEFDEQGRELQKAFEDTLQLMERSLPEIWTLTYQQNSATPVLGPNSTANSIMASYQQQKTSVPVLDAELFIPPKINRRTQWKLSLLD | – | – | binds
